This data set can be described thus: yeast display, Sf9 membrane polyspecificity reagent, FACS + sequencing; frameworks hold sequencing errors. Summed up:
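Galactose-induced (36–48 hours) yeast carrying a synthetic nanobody display library were exposed to 10% biotinylated, detergent-solubilized Sf9 membrane reagent at 4 °C for 1 hour. FACS followed streptavidin microbead enrichment, using low and high (top ~1%) gates for expression (anti-HA) and reagent binding (streptavidin). Colony PCR, MiSeq 2 × 250 sequencing and CDR-length filtering followed. Labels for polyreactivity reflect the gate of origin.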
Regarding “QVQLVESGGGLVQAGGSLRLSCAASGRTFLIYAMGWYRQAPGKERELVAAINNGGSTYYADSVKGRFTISRDNAKNTVYLQMNSLKPEDTAVYYCAARQIRATRYYYWGQGTQVTVSS”, the “polyreactivity (PSR sort gate)” value is listed as “high polyreactivity”.
Consider “QVQLVESGGGLVQAGGSLRLSCAASGSIFRLYAMGWYRQAPGKERELVAAITWRSGSTYYADSVKGRFTISRDNAKNTVYLQMNSLKPEDTAVYYCAADSLYRLYNYWGQGTQVTVSS”, for which the “polyreactivity (PSR sort gate)” value is given as “high polyreactivity”.
As to “QVQLVESGRGLVQAGGTLRLSCAASGSTFNKYAMGWYRQAPGKERELVAAIRSNGVRTYYADSVKVRLTISRDNAKNTVYLQMNSLNPEDTAVYYCNKRYTYRYDYWGQGTQVTVSS”, the “polyreactivity (PSR sort gate)” value was “high polyreactivity”.
The same measure for “QDHHVDSGGGLVQAGGILRLSCAASGSIIDYYPMGWYRQPPGKERELVARIRRRSSSTFYADSVKGRFTISRDNEKNTDYLQMNSLKPEDTAVYYCAADSYAWSTGGIFDYWGQGTQVTVSS”: “high polyreactivity”.
Then “QVQLVESGGGLVQAGGSLRLSCAASGITFIVNTMGWYRQAPGKEREFVATISANSDGTYYADSVKGRFTISRDNAKNTVYLQMNSLKPEDTAVYYWGQGTQVTVSS”, with “low polyreactivity”.
Then “QVQLVESGGGLVQAGGSLRLSCAASGFIFSLYAMGWYRQAPGKERELVAAISKRGGSTNYADSVKGRFTISRDNAKNTVYLQMNSLKPEDTAVYYCAKARPGFLYDHWGQGTQVTVSS”, with “high polyreactivity”; and “QVQLVESGGGLVQAGGSLRLSCAASGRIFSVYAMGWYRQAPGKERELVAGITSSGGSTYYADSVKGRFTISRDNAKNTVYLQMNSLKPEDTAVYYCNAYSQYWLGNNYWGQGTQVTVSS”, with “high polyreactivity”; and “QVQLLESGGGLVQAGGSLRLSCASSGYINSYYTMGWYRHATGKERVLVASIRWAGGRTYYADSVKGRFTFSRDNAKITVYLQMNSLKPEDTAVYYCNVKSSRFLDVGRMEYWGQGTQVTVSS”, with “high polyreactivity”.
Consider “QVQLVESGGGLVQAGGSLRLSCAASGRIFLVYAMGWYRQAPGKERELVAAITKRGGSTYYADSVKGRFTISRDNAKNTVYLQMNSLKPEDTAVYYCAADGYTRGYDYWGQGTQVTVSS”, for which the “polyreactivity (PSR sort gate)” value is “high polyreactivity”.
Then “QVQLVESGGGLVQAGGSLRLSCAASGRIFQRYAMGWYRQAPGKERELVAVITKRGGNTYYADSVKGRFTISRDNAKNTVYLQMNSLKPEDTAVYYCANRSGRSTGDYWGQGTQVTVSS”, with “high polyreactivity”.
The same measure for “QVQLVESGGGLVQAGGSLRLSCAASGRTFESYAMGWYRQAPGTERELVAAITWSGGDTYYADSVKGRFTISRDNAKNTVYLQMNSLKPEETAVYYCAKEQGLYSVSPYDYWGQGTQVTVSS”: “low polyreactivity”; for “QVQLVESGGGLVQAGGSLRLSCAASGFTFVYYVMGWYRQAPGKERELVAAITYSGGSTYYADSVKGRFTISRDNAKNTVYLHMNSLKPEDTAVYYCAKEVQTYWYHYYYWGQGTQVTVSS”: “high polyreactivity”.
The same measure for “QVQLVESGGGLVQAGGSLRLSCAASGSTFILNYMGWYRQAPGKERELVAAIDWGDSTTYYADSVKGRFTISRDNAKNTVYLQMNSLKPEDTAVYYCAADFAVSAFTRYPPTEYWGQGTQVTVSS”: “high polyreactivity”; for “QVQLVESGAGLVQAGGSLRLSCAASGRIFERYAMGWYRQAPGKERELVAAISVSGSGTYYADSVKGRFTISRDNAKNTVYLQMNSLKPEDTAVYYCAADASLLGLFQGYDYWGQGTQVTVSS”: “low polyreactivity”; for “QVQLVESGGVLVQAGGSLRLSCAASGLTFSWYAMGWYRQAPGKERELVASINYSGANTYYADSVKGRFTISRDNAQNTVFLQMNSLKPEDTAVYYCNSRLRRYQNERVTYDYWGQGTQVTVSS”: “high polyreactivity”.
With “QDQLVESGGGLVQAGGSLRLTCAASGFTIWYYAMGWYRQAPGKERELVAAISSVSSTKYADSVKGRFTISRDNAKNTVYFQMNSLKPEDTAVYYCAADIVRYWRHGFGWRRYDYWGQGTQVTVSS”, the “polyreactivity (PSR sort gate)” value is recorded as “high polyreactivity”.
Then “QVQLVESGGGLVQAGGSLRLSCAASGFIIDYYAKGWYRQAPGKERELVASITDSTTYYADSVKGRFTISRDNAKNTVYLQMNSLKPEDTAVYYCNARGGYAYVLYDYWGQGTQVTVSS”, with “low polyreactivity”; and “QVQLQDSGGGLVQAVGSQRMSCAASGYIFYFQYMGWYRQAPGKEREFVAAISDGANTNYADSVKGRFTISRDNAKNTEYLQMYCLKPEDTAVYYCAVYADENYYYIYWGQGTQVTVSS”, with “low polyreactivity”; and “QVQLVESGGGLVQAGGSLRLSCAASGSTFRGNTMGWYRQAPGKERELVAAISRRGGGTYYADSVKGRFTISRDNAKNTVYLQMNSLKPEDTAVYYCNKRARHTGDFVWGHGYWGQGTQVTVSS”, with “low polyreactivity”.
The same measure for “QVQLVESGGGLVQAGGSLRLSCAASGSTFQRYAKGWYRQAPGKEWELVAGITGSVGRTYYADSVKGRFTISRDNAKNTVDLQMNSLKPQATAVSYCAADGRTWLYYGTRRDYWGQGTQVTVSS”: “high polyreactivity”.
Regarding “QVKHVESGGGLVQAGGSLRLTCAASGSIFYRNAMGWYRQAPGKERELVAGISRRGGSTYYADSVKGRFTMSRDNAKNTVYLQMNSLKPEDTAGYYCAADFAWVRLTYGYCGQGTQVTVSS”, the “polyreactivity (PSR sort gate)” value is “low polyreactivity”.
For the sequence “QVQHVESGGGLVQAGGSLRLSCAASVRTFIYYAMGWYRQAPGKERELVASITTGGRTYYADSVKGRFTISRDNAKNTVYLQMNSLKPEDTAVYYCNARWYRTGSTYHEDYWGQGTQVTVSS”, the “polyreactivity (PSR sort gate)” value is “high polyreactivity”.
The same measure for “QVQLVESGGGLVQAGGSLRLSCAASGITFTVYAMGWYRQATRKERELVAAITSTGSTNYADSVKGLFTISRDNAKNTVYLQMNSLKPEDTAVYYCAADRQITVYAFDYWGQGTQVTVSS”: “low polyreactivity”; for “QVQLVESGGGLVQAGGSLRLSCAASGSIFGYYTMGWYIQAPGKERELVAAITSGGSTNYADSVKGRFTISRDNAKNTVYLQMNSLKPEDTAVYYCAKVSYYPWRYDYWGQGTQVTVSS”: “low polyreactivity”.
Then “QVQLVESGGGLVQSGGSLRLSSAASGYTFWAYPMGWYRQAPGKERELVAGISSRGSRTYYADSVKGRFTISRDNAKNTVYLQMNSLKPEDTAVYFCNALRTAQGYYPPLDYWGQGTQVTVSS”, with “high polyreactivity”; and “QVQLVESGGGLVQAGGSLRLSCAASGLTFAGNAMGWSRQAPGTERELVAAITWTGDRTYYADSVKGRFTISRDNAKNTVYLQMNCLKPEDTAVYYCAAQVRSLYSPGWYYYWGQGTQVTVSS”, with “high polyreactivity”.
Then “QVQLVESGGGLVQAGGSLRLSCAASGRTFGWYDMGWYRQAPGKERELVAAISWSGSSTYYADSVKGRFTISRDNAKNTVYLQMNSLKPEDNAVYYFNDVIRSDLFSYLDGRYDYWGQGTQVTVSS”, with “high polyreactivity”; and “QVQLVESRGGLVQAGGSLRLSCAASGYIFGYTVMGWYRQAPGTERELVATITRGGDTNYADSVKGGFTISRDNAKNTVYLQMNSLKPEDSSVYYCAAEPVAYYGSSYGYWGQGTQVTVSS”, with “low polyreactivity”.
For the sequence “QVQLVESGGGLVQAGGSLRLSCAASGSTFYYYAMGWYRQAPGKERELVAAITYRGGSTYYADSVKGLFTISRDNAKNTVYLQMNSLKPEDTAVYYCSKVGYKTSSIRYGYWGQGTQVTVSS”, the “polyreactivity (PSR sort gate)” value is on record as “high polyreactivity”.
Then “QVQLVESGVGLVQAGGSLRLSCAASGYIFFGNAMGWYRQAPGKERELVAAIRWRGTSTYYADSVKGRFTISRDNAKNTVYLQMNSLKPEDTAVYYCAADVVRSNFYGTFLYDYDYWGQGTQVTVSS”, with “low polyreactivity”.
Then “QVQLVESGGGLVQAGGSLRLSCAASVFYPYAMGWYRQAPGKERELVAAISWSGGRTYYADSVKGRFTISRDNAKNTVYLQMNSLKPEDTAVYYCNKVYSSYRVYDFNYWGQGTQVTVSS”, with “high polyreactivity”.
The same measure for “QVQLVESGGGLVQAGGSLRLSCAGSGSIFGVYDLGWYRQAPGKERELVAVINSNGGSTYYADSVKGRFTISRDNAKNTVYLQMNSLKPEDTAVYYCAADYQSYVYIGYGYWGQGTQVTVSS”: “low polyreactivity”; for “QVQLVESGGGLVHAGGSLRLSSAASGSIYYYAMGWYRQAPGKERELVAAITWRGGRTYYADSVKGRFTISRDNAKNNVYLQMNILKPEDTAVYYCNDVAPGKYNHWGQGTQVNVSS”: “high polyreactivity”; for “QVQLVESGGGLVQARGSLRLSCAASGLIFKYNVMGWYRQAPGTERELVAAITWGGTRTYYADSVKGRFTISRDNAKNTVYLQMNSLKPEDTAVYYCARSHWTWLLIYIGAQDYDYWGQGTQVTVSS”: “low polyreactivity”.
On to “QVQLVESGGGLVQAGGSLRLSCAASGIIFTRYVMGWYRQAPGKERELVATIRIGGSTTYADSVKGRFTISRDNAKNTVYLQMNSLKPEDTAVYYCAADTWYITTYGGAGSYAYGFYYWGQGTQVTVSS”, for which the “polyreactivity (PSR sort gate)” value was “low polyreactivity”.
The same measure for “QVQLVESGGGLVQAGGSLRLSCAASGSTFDLYAMGWYRQAPGKERELVAGISRGGSTYYADSVKGRFTISRDNAKNTVYLQMNSLKPEDTAVYYCAAYFRYRSSRYGYWGQGTQVTVSS”: “high polyreactivity”; for “QVQLVESGVGLVQAGGSLSLSCASSGFIFSANDMGWYRPAPGKERELVADIDSSGRTNYADSVKGRVTISRDNAKNTVYLQMNSLKPEDTAVYYCATPPDDTGGGYRGYDYWGQGTQVTVSS”: “low polyreactivity”.
The same measure for “QVQLVESGGGLVQAGGSLRLSCAASGSTFVIYAMGWYIQAPGKERELVAAINSGVSTYADSVKGRFTISRDNAKNTVYLQMNSLKPEDTAVYYCNAVSRPPYGPVFSAPAGGSWGQGTQVTVSS”: “low polyreactivity”.
“QVQILESGGGLVQAGVSLRLSCAPSGSTFSRNAMAWYRQAPGKERELVAAISSSGGRTYYAESVKVRFTISRDNAKNTVYLQMNSLTPEDTAVYYCAAAFSLGMYWGQGTLVTVSS”: the “polyreactivity (PSR sort gate)” value is listed as “high polyreactivity”.
The same measure for “QVQLVESGGGLVQAGGSLRLSCAASGFIFYKNAMGWYRQAPGKERQLVAAINFSTGRTYYADSVKGRFTISRDNAKNTVYLQMNSLKPEDTAVYYCASKSANPRKYYYWGQGTQVTVSS”: “high polyreactivity”.
For “QVQLVESGGGLVQAGGSLRLSCAASGSTFYRYAMGWYRQAPGKERELVATISGGGRTNYADSVKGRFTISRDNAKNTVYLQMNCLKPEDTAVYYCAARGYTGRFSRVNVPFYYWGQGTQVTVSS”, the “polyreactivity (PSR sort gate)” value is listed as “high polyreactivity”.

The values are drawn from the nanobody polyreactivity screen of Harvey et al. (2022).
